Reference: US9580731B2, “Methods of producing 7-carbon chemicals via c1 carbon chain elongation associated with coenzyme B synthesis” (INVISTA North America S.á r.l., priority 2012, dated 2017)

B1: SEQ ID NO 8: Chromobacterium violaceum ω-transaminase, Genbank Accession No. AAQ59697.1 (protein, listed as Chromobacterium violaceum)
chain: MQKQRTTSQWRELDAAHHLHPFTDTASLNQAGARVMTRGEGVYLWDSEGNKIIDGMAGLWCVNVGYGRKDFAEAARRQMEELPFYNTFFKTTHPAVVELSSLLAEVTPAGFDRVFYTNSGSESVDTMIRMVRRYWDVQGKPEKKTLIGRWNGYHGSTIGGASLGGMKYMHEQGDLPIPGMAHIEQPWWYKHGKDMTPDEFGVVAARWLEEKILEIGADKVAAFVGEPIQGAGGVIVPPATYWPEIERICRKYDVLLVADEVICGFGRTGEWFGHQHFGFQPDLFTAAKGLSSGYLPIGAVFVGKRVAEGLIAGGDFNHGFTYSGHPVCAAVAHANVAALRDEGIVQRVKDDIGPYMQKRWRETFSRFEHVDDVRGVGMVQAFTLVKNKAKRELFPDFGEIGTLCRDIFFRNNLIMRACGDHIVSAPPLVMTRAEVDEMLAVAERCLEEFEQTLKARGLA
B2: SEQ ID NO 10: Pseudomonas syringae ω-transaminase, Genbank Accession No. AAY39893.1 (protein, listed as Pseudomonas syringae)
chain: MSANNPQTLEWQALSSEHHLAPFSDYKQLKEKGPRIITRAEGVYLWDSEGNKILDGMSGLWCVAIGYGREELADAASKQMRELPYYNLFFQTAHPPVLELAKAISDIAPEGMNHVFFTGSGSEGNDTMLRMVRHYWALKGQPNKKTIISRVNGYHGSTVAGASLGGMTYMHEQGDLPIPGVVHIPQPYWFGEGGDMTPDEFGIWAAEQLEKKILELGVENVGAFIAEPIQGAGGVIVPPDSYWPKIKEILSRYDILFAADEVICGFGRTSEWFGSDFYGLRPDMMTIAKGLTSGYVPMGGLIVRDEIVAVLNEGGDFNHGFTYSGHPVAAAVALENIRILREEKIVERVRSETAPYLQKRLRELSDHPLVGEVRGVGLLGAIELVKDKTTRERYTDKGAGMICRTFCFDNGLIMRAVGDTMIIAPPLVISFAQIDELVEKARTCLDLTLAVLQG
B3: SEQ ID NO 13: Vibrio fluvialis ω-transaminase, Genbank Accession No. AEA39183.1 (protein, listed as Vibrio fluvialis)
chain: MNKPQSWEARAETYSLYGFTDMPSLHQRGTVVVTHGEGPYIVDVNGRRYLDANSGLWNMVAGFDHKGLIDAAKAQYERFPGYHAFFGRMSDQTVMLSEKLVEVSPFDSGRVFYTNSGSEANDTMVKMLWFLHAAEGKPQKRKILTRWNAYHGVTAVSASMTGKPYNSVFGLPLPGFVHLTCPHYWRYGEEGETEEQFVARLARELEETIQREGADTIAGFFAEPVMGAGGVIPPAKGYFQAILPILRKYDIPVISDEVICGFGRTGNTWGCVTYDFTPDAIISSKNLTAGFFPMGAVILGPELSKRLETAIEAIEEFPHGFTASGHPVGCAIALKAIDVVMNEGLAENVRRLAPRFEERLKHIAERPNIGEYRGIGFMWALEAVKDKASKTPFDGNLSVSERIANTCTDLGLICRPLGQSVVLCPPFILTEAQMDEMFDKLEKALDKVFAEVA
B4: SEQ ID NO 3: Mycobacterium smegmatis carboxylate reductase, Genbank Accession No. ABK71854.1 (protein, listed as Mycobacterium smegmatis)
chain: MTSDVHDATDGVTETALDDEQSTRRIAELYATDPEFAAAAPLPAVVDAAHKPGLRLAEILQTLFTGYGDRPALGYRARELATDEGGRTVTRLLPRFDTLTYAQVWSRVQAVAAALRHNFAQPIYPGDAVATIGFASPDYLTLDLVCAYLGLVSVPLQHNAPVSRLAPILAEVEPRILTVSAEYLDLAVESVRDVNSVSQLVVFDHHPEVDDHRDALARAREQLAGKGIAVTTLDAIADEGAGLPAEPIYTADHDQRLAMILYTSGSTGAPKGAMYTEAMVARLWTMSFITGDPTPVINVNFMPLNHLGGRIPISTAVQNGGTSYFVPESDMSTLFEDLALVRPTELGLVPRVADMLYQHHLATVDRLVTQGADELTAEKQAGAELREQVLGGRVITGFVSTAPLAAEMRAFLDITLGAHIVDGYGLTETGAVTRDGVIVRPPVIDYKLIDVPELGYFSTDKPYPRGELLVRSQTLTPGYYKRPEVTASVFDRDGYYHTGDVMAETAPDHLVYVDRRNNVLKLAQGEFVAVANLEAVFSGAALVRQIFVYGNSERSFLLAVVVPTPEALEQYDPAALKAALADSLQRTARDAELQSYEVPADFIVETEPFSAANGLLSGVGKLLRPNLKDRYGQRLEQMYADIAATQANQLRELRRAAATQPVIDTLTQAAATILGTGSEVASDAHFTDLGGDSLSALTLSNLLSDFFGFEVPVGTIVNPATNLAQLAQHIEAQRTAGDRRPSFTTVHGADATEIRASELTLDKFIDAETLRAAPGLPKVTTEPRTVLLSGANGWLGRFLTLQWLERLAPVGGTLITIVRGRDDAAARARLTQAYDTDPELSRRFAELADRHLRVVAGDIGDPNLGLTPEIWHRLAAEVDLVVHPAALVNHVLPYRQLFGPNVVGTAEVIKLALTERIKPVTYLSTVSVAMGIPDFEEDGDIRTVSPVRPLDGGYANGYGNSKWAGEVLLREAHDLCGLPVATFRSDMILAHPRYRGQVNVPDMFTRLLLSLLITGVAPRSFYIGDGERPRAHYPGLTVDFVAEAVTTLGAQQREGYVSYDVMNPHDDGISLDVFVDWLIRAGHPIDRVDDYDDWVRRFETALTALPEKRRAQTVLPLLHAFRAPQAPLRGAPEPTEVFHAAVRTAKVGPGDIPHLDEALIDKYIRDLREFGLI

Experiments:
Type in all cases: biochemical
[1] = ω-transaminase activity assay, 7-aminoheptanol to 7-oxoheptanol; conditions: for ω-transaminase activity for converting 7-aminoheptanol to 7-oxoheptanol (pyruvate to L-alanine): cell free extract, 10 mM 7-aminoheptanol, 10 mM pyruvate, 25° C., 4 h, against empty vector control, FIG. 19; for ω-transaminase acceptance of 7-oxoheptanol, forming 7-aminoheptanol: concluded from reversibility of the ω-transaminase activity (Example 2)
Experimental: A nucleotide sequence encoding an N-terminal His-tag was added to the Chromobacterium violaceum, Pseudomonas syringae and Rhodobacter sphaeroides genes encoding the ω-transaminases of SEQ ID NOs: 8, 10 and 11, respectively (see FIG. 7) such that N-terminal HIS tagged ω-transaminases could be produced. The modified genes were cloned into a pET21a expression vector under the T7 promoter. Each expression vector was transformed into a BL21[DE3] E. coli host. Each resulting recombinant E. coli strain were cultivated at 37° C. in a 250 mL shake flask culture containing 50 mL LB media and antibiotic selection pressure, with shaking at 230 rpm. Each culture was induced overnight at 16° C. using 1 mM IPTG.
(§1) The pellet from each induced shake flask culture was harvested via centrifugation. Each pellet was resuspended and lysed via sonication. The cell debris was separated from the supernatant via centrifugation and the cell free extract was used immediately in enzyme activity assays.
(§2) Enzyme activity assays in the reverse direction (i.e., 7-aminoheptanol to 7-oxoheptanol) were performed in a buffer composed of a final concentration of 50 mM HEPES buffer (pH=7.5), 10 mM 7-aminoheptanol, 10 mM pyruvate, and 100 μM pyridoxyl 5′ phosphate. Each enzyme activity assay reaction was initiated by adding cell free extract of the ω-transaminase gene product or the empty vector control to the assay buffer containing the 7-aminoheptanol and then incubated at 25° C. for 4 h, with shaking at 250 rpm. The formation of L-alanine was quantified via RP-HPLC.

[2] = ω-transaminase activity assay, forward direction, pimelate semialdehyde to 7-aminoheptanoate; conditions: for ω-transaminase activity for converting pimelate semialdehyde to 7-aminoheptanoate (L-alanine to pyruvate): cell free extract, 10 mM pimelate semialdehyde, 10 mM L-alanine, 25° C., 4 h, against empty vector control, FIG. 16; for reversibility of the ω-transaminase activity: pimelate semialdehyde accepted, 7-aminoheptanoate synthesized: conclusion from forward and reverse assays of Example 2
Experimental: (§3) A sequence encoding an N-terminal His-tag was added to the genes from Chromobacterium violaceum, Pseudomonas syringae, Rhodobacter sphaeroides, and Vibrio Fluvialis encoding the ω-transaminases of SEQ ID NOs: 8, 10, 11 and 13, respectively (see FIG. 7) such that N-terminal HIS tagged ω-transaminases could be produced. Each of the resulting modified genes was cloned into a pET21a expression vector under control of the T7 promoter and each expression vector was transformed into a BL21[DE3] E. coli host. The resulting recombinant E. coli strains were cultivated at 37° C. in a 250 mL shake flask culture containing 50 mL LB media and antibiotic selection pressure, with shaking at 230 rpm. Each culture was induced overnight at 16° C. using 1 mM IPTG.
as §1
Enzyme activity in the forward direction (i.e., pimelate semialdehyde to 7-aminoheptanoate) was confirmed for the transaminases of SEQ ID NO 10, SEQ ID NO 11 and SEQ ID NO 13. Enzyme activity assays were performed in a buffer composed of a final concentration of 50 mM HEPES buffer (pH=7.5), 10 mM pimelate semialdehyde, 10 mM L-alanine and 100 μM pyridoxyl 5′ phosphate. Each enzyme activity assay reaction was initiated by adding a cell free extract of the ω-transaminase gene product or the empty vector control to the assay buffer containing the pimelate semialdehyde and incubated at 25° C. for 4 h, with shaking at 250 rpm. The formation of pyruvate was quantified via RP-HPLC.

[3] = ω-transaminase activity assay, reverse direction, 7-aminoheptanoate to pimelate semialdehyde; conditions: cell free extract, 10 mM 7-aminoheptanoate, 10 mM pyruvate, 25° C., 4 h, against empty vector control, FIG. 15
Experimental: as §3, §1
as §2, with “7-aminoheptanoate” for “7-aminoheptanol”, “pimelate semialdehyde)” for “7-oxoheptanol)”, “7-aminoheptanoate,” for “7-aminoheptanol,”, “pyruvate” for “pyruvate,”, “and” for “and then”, “L-alanine from pyruvate” for “L-alanine”

[4] = Carboxylate reductase activity assay, N7-acetyl-7-aminoheptanoate to N7-acetyl-7-aminoheptanal (NADPH consumption); conditions: 2 mM N7-acetyl-7-aminoheptanoate, enhanced by gene product of sfp, room temperature, 20 min, against empty vector control, FIG. 12
Experimental: The activity of each of the N-terminal His-tagged carboxylate reductases of SEQ ID NOs: 3, 6, and 7 (see Examples 4, and FIG. 7) for converting N7-acetyl-7-aminoheptanoate to N7-acetyl-7-aminoheptanal was assayed in triplicate in a buffer composed of a final concentration of 50 mM HEPES buffer (pH=7.5), 2 mM N7-acetyl-7-aminoheptanoate, 10 mM MgCl2, 1 mM ATP, and 1 mM NADPH. The assays were initiated by adding purified carboxylate reductase and phosphopantetheine transferase or the empty vector control to the assay buffer containing the N7-acetyl-7-aminoheptanoate then incubated at room temperature for 20 min. The consumption of NADPH was monitored by absorbance at 340 nm.

Molecule | ω-transaminase activity for converting 7-aminoheptanol to 7-oxoheptanol (pyruvate to L-alanine) [1] | ω-transaminase acceptance of 7-oxoheptanol, forming 7-aminoheptanol [1] | ω-transaminase activity for converting pimelate semialdehyde to 7-aminoheptanoate (L-alanine to pyruvate) [2] | reversibility of the ω-transaminase activity: pimelate semialdehyde accepted, 7-aminoheptanoate synthesized [2] | ω-transaminase activity for converting 7-aminoheptanoate to pimelate semialdehyde (pyruvate to L-alanine) [3] | carboxylate reductase activity for converting N7-acetyl-7-aminoheptanoate to N7-acetyl-7-aminoheptanal (NADPH consumption, absorbance at 340 nm) [4]
SEQ ID NO 11: Rhodobacter sphaeroides ω-transaminase, Genbank Accession No. ABA81135.1 | accepted 7-aminoheptanol as substrate | accept 7-oxoheptanol as substrate | accepted pimelate semialdehyde as substrate | accepted pimelate semialdehyde as substrate and synthesized 7-aminoheptanoate | accepted 7-aminoheptanote as substrate | –
B1 | accepted 7-aminoheptanol as substrate | accept 7-oxoheptanol as substrate | – | accepted pimelate semialdehyde as substrate and synthesized 7-aminoheptanoate | accepted 7-aminoheptanote as substrate | –
B2 | accepted 7-aminoheptanol as substrate | accept 7-oxoheptanol as substrate | accepted pimelate semialdehyde as substrate | accepted pimelate semialdehyde as substrate and synthesized 7-aminoheptanoate | accepted 7-aminoheptanote as substrate | –
B3 | – | – | accepted pimelate semialdehyde as substrate | accepted pimelate semialdehyde as substrate and synthesized 7-aminoheptanoate | accepted 7-aminoheptanote as substrate | –
B4 | – | – | – | – | – | accepted N7-acetyl-7-aminoheptanoate as substrate
